Measured values taken from the Human Domainome abundance scans (Beltran et al. 2025).
± gives the uncertainty stated by the source.

B1: Triacylglycerol hydrolase DDHD2, residues 389 to 447; numbered along this chain, O94830 (parent)
chain: TLEEDLKKLQLSEFFDIFEKEKVDKEALALCTDRDLQEIGIPLGPRKKILNYFSTRKNS

Variants of: B1
Assay: abundance fitness (aPCA) (normalised: wild type 0, dead -1); higher = more abundant; growth selection in yeast, the domain comes from the species named
Settings: Homo sapiens

Abundance fitness: each site, then its substitutions
S54: G -0.113 ± 0.063
I41: A -0.433 ± 0.087 | W -0.831 ± 0.11 | Y -0.689 ± 0.2 | Q -0.144 ± 0.1 | F -0.888 ± 0.25 | P -0.417 ± 0.15 | E -0.13 ± 0.086 | G -0.323 ± 0.068 | V 0.003 ± 0.063 | N -0.837 ± 0.21 | D -0.384 ± 0.15 | C -0.425 ± 0.12 | L 0.069 ± 0.062 | S -0.168 ± 0.08 | R -0.289 ± 0.066 | H -0.31 ± 0.14 | M 0.134 ± 0.08
S59: E 0.075 ± 0.18 | C -0.058 ± 0.13 | G -0.151 ± 0.11 | D 0.23 ± 0.17 | A -0.235 ± 0.1 | F 0.03 ± 0.12
G40: I -0.839 ± 0.17 | C -0.573 ± 0.14 | L -1.01 ± 0.098 | D -0.572 ± 0.11 | W -1.23 ± 0.17 | E -0.556 ± 0.1 | T -0.67 ± 0.1 | F -0.865 ± 0.24 | Y -1.2 ± 0.27 | R -0.411 ± 0.082 | N -0.253 ± 0.14 | Q -0.216 ± 0.12 | A -0.65 ± 0.085 | K -0.651 ± 0.16 | V -0.689 ± 0.078 | H -0.502 ± 0.19
L50: R -0.247 ± 0.06 | W -0.585 ± 0.1 | N -0.483 ± 0.17 | M -0.209 ± 0.1 | F -0.008 ± 0.15 | G -0.291 ± 0.061 | T -0.209 ± 0.092 | I 0.096 ± 0.11 | H -0.087 ± 0.14 | Q -0.345 ± 0.11 | D 0.14 ± 0.11 | K -0.218 ± 0.1 | C -0.215 ± 0.13 | A -0.415 ± 0.089 | P -0.401 ± 0.11
I39: T -0.336 ± 0.089 | W 0.613 ± 0.072 | S -0.364 ± 0.078 | V -0.052 ± 0.07 | Q -0.146 ± 0.086 | Y 0.548 ± 0.1 | R -0.008 ± 0.065 | N -0.249 ± 0.18
F53: H -0.285 ± 0.13 | M 0.023 ± 0.091 | L -0.324 ± 0.078 | I -0.085 ± 0.15 | A -0.282 ± 0.07 | Y -0.027 ± 0.14 | S -0.237 ± 0.088 | T -0.247 ± 0.084 | C -0.029 ± 0.092 | W -0.38 ± 0.1 | R -0.323 ± 0.069 | G -0.213 ± 0.062 | N -0.073 ± 0.13 | E 0.221 ± 0.069 | V -0.363 ± 0.064 | D -0.03 ± 0.095 | Q -0.118 ± 0.12 | K 0.031 ± 0.079
N58: H -0.377 ± 0.13 | Y -0.08 ± 0.14 | E 0.078 ± 0.088 | P -0.199 ± 0.11 | F -0.422 ± 0.17 | V -0.015 ± 0.078 | W -0.373 ± 0.14 | R -0.332 ± 0.074 | A -0.193 ± 0.097 | T -0.049 ± 0.11 | M 0.208 ± 0.12 | Q -0.236 ± 0.12 | L -0.116 ± 0.088 | C -0.252 ± 0.15
G44: Q 0.333 ± 0.069 | A 0.35 ± 0.054 | S 0.167 ± 0.048 | V 0.375 ± 0.049 | L 0.1 ± 0.049 | E 0.574 ± 0.079 | R -0.056 ± 0.055 | P -0.079 ± 0.064 | K 0.18 ± 0.072 | C -0.176 ± 0.055 | I 0.418 ± 0.052 | H 0.101 ± 0.059 | F -0.151 ± 0.053 | Y -0.122 ± 0.054 | W -0.275 ± 0.07 | D 0.342 ± 0.058 | N 0.041 ± 0.058 | M 0.06 ± 0.069
T55: E 0.214 ± 0.081 | K 0.178 ± 0.096 | D -0.067 ± 0.086 | H -0.146 ± 0.14 | N 0.166 ± 0.12 | S -0.007 ± 0.067 | W -0.295 ± 0.11 | V -0.152 ± 0.063 | I 0.122 ± 0.11 | G 0.007 ± 0.054 | Q 0.006 ± 0.11 | F -0.482 ± 0.16 | L -0.072 ± 0.073 | C 0.041 ± 0.11 | P -0.079 ± 0.1 | Y -0.159 ± 0.1 | A 0.058 ± 0.067
Y52: V -0.26 ± 0.066 | G -0.34 ± 0.067 | P -0.313 ± 0.12 | T -0.172 ± 0.11 | A -0.08 ± 0.077 | M -0.21 ± 0.082 | L -0.354 ± 0.073 | K -0.3 ± 0.094 | D -0.088 ± 0.1 | Q 0.123 ± 0.12 | C -0.459 ± 0.13 | S -0.15 ± 0.072 | W -0.089 ± 0.075 | E -0.075 ± 0.084 | N 0.151 ± 0.12 | F 0.172 ± 0.16 | H 0.231 ± 0.14 | R -0.237 ± 0.059 | I -0.387 ± 0.2
N51: D 0.209 ± 0.089 | I -0.93 ± 0.17 | P -0.37 ± 0.11 | M 0.084 ± 0.088 | T 0.119 ± 0.079 | W -0.384 ± 0.094 | K 0.044 ± 0.097 | A 0.151 ± 0.073 | S 0.14 ± 0.065 | V -0.729 ± 0.092 | G 0.061 ± 0.07 | C -0.323 ± 0.096 | Q 0.166 ± 0.1 | H -0.148 ± 0.12 | L -0.185 ± 0.07 | E 0.18 ± 0.094 | R 0.042 ± 0.067 | Y -0.475 ± 0.14
